The text below walks through data of patent publication US20060270596A1 (CENTRE NATIONAL DE LA RECHERCHE SCIENTIFIQUE CNRS, published 2006).

For assay [1], the target named is T1, THAP1-C1 deletion mutant (amino acids 90-213) (human, UniProt Q9NVV9 90-213).
T1 construct: Gal4 fusion, in vitro translation product or GFP fusion according to assay; also called THAP1-CL; THAP1ΔTHAP
T1 sequence: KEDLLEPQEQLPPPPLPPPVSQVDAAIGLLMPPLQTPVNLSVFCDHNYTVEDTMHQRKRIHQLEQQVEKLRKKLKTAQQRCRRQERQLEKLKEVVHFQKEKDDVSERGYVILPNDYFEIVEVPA
The experiment in a line: in vivo interaction test: GFP-THAP1 mutant and myc-Par4DD co-expressed in primary human endothelial cells, confocal immunofluorescence. From the text: (§1) To provide further evidence for a physiological interaction between THAP1 and Par4 in vivo interactions between THAP1 and PAR4 were investigated. For that purpose, confocal immunofluorescence microscopy was used to analyze the subcellular localization of epitope-tagged Par4DD in primary human endothelial cells transiently cotransfected with pEF-mycPar4DD eukaryotic expression vector and GFP or GFP-THAP1 expression vectors (pEGFP.C2 and pEGFP.C2-THAP1, respectively). To generate pEF-mycPar4DD, mycPar4DD (amino acids 250-342) was amplified by PCR using pGBKT7-Par4DD as template, with primers myc.BD7 (5′-[…]-3′) (SEQ ID NO: 195) and Par4.9 (5′-[…]-3′) (SEQ ID NO: 196), and cloned into the XbaI and NotI sites of the pEF-BOS expression vector (Mizushima and Nagata, Nucleic Acids Research, 18:5322, 1990). Primary human endothelial cells from umbilical vein (HUVEC, PromoCell, Heidelberg, Germany) were grown in complete ECGM medium (PromoCell, Heidelberg, Germany), plated on coverslips and transiently transfected in RPMI medium using GeneJammer transfection reagent according to manufacturer instructions (Stratagene, La Jolla, Calif., USA). Cells co-transfected with pEF-mycPar4DD and GFP-tagged expression constructs were allowed to grow for 24 h to 48 h on coverslips. Cells were washed twice with PBS, fixed for 15 min at room temperature in PBS containing 3.7% formaldehyde, and washed again with PBS prior to neutralization with 50 mM NH₄Cl in PBS for 5 min at room temperature. Following one more PBS wash, cells were permeabilized 5 min at room temperature in PBS containing 0.1% Triton-X100, and washed again with PBS. Permeabilized cells were then blocked with PBS-BSA (PBS with 1% bovine serum albumin) for 10′ and then incubated 2 hr at room temperature with mouse monoclonal antibody anti-myc epitope (mouse IgG1, 1/200, Clontech) diluted in PBS-BSA. Cells were then washed three times 5 min at room temperature in PBS-BSA, and incubated for 1 hr with Cy3 (red fluorescence)-conjugated goat anti-mouse (1/1000, Amersham Pharmacia Biotech) secondary antibodies, diluted in PBS-BSA. After extensive washing in PBS, samples were air dried and mounted in Mowiol. Images were collected on a Leica confocal laser scanning microscope.

Assay [2] addresses T2, THAP1-N1 deletion mutant (amino acids 1-90) (human, UniProt Q9NVV9 1-90).
T2 construct: Gal4 fusion, in vitro translation product or GFP fusion according to assay; also called zinc finger domain of THAP1
T2 sequence: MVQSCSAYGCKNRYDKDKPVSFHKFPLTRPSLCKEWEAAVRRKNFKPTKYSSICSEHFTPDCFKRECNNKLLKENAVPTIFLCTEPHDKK
The assay is described as above.
Excerpt: as §1

Assay [3] addresses T3, THAP1-C2 deletion mutant (amino acids 120-213) (human, UniProt Q9NVV9 120-213).
T3 construct: Gal4 fusion, in vitro translation product or GFP fusion according to assay
T3 sequence: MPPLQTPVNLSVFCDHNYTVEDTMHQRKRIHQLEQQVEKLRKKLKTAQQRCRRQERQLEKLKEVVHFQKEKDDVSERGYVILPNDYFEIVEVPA
The description is as above.
Excerpt: as §1

Assay [4] has as its target T4, THAP1-C3 deletion mutant (amino acids 143-213) (human, UniProt Q9NVV9 143-213).
T4 construct: Gal4 fusion, in vitro translation product or GFP fusion according to assay
T4 sequence: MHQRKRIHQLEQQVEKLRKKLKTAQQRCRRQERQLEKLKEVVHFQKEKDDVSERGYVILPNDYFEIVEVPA
The description is as above.
Excerpt: as §1

The target in assay [5] is T5, THAP1-N2 deletion mutant (amino acids 1-166) (human, UniProt Q9NVV9 1-166).
T5 construct: Gal4 fusion, in vitro translation product or GFP fusion according to assay
T5 sequence: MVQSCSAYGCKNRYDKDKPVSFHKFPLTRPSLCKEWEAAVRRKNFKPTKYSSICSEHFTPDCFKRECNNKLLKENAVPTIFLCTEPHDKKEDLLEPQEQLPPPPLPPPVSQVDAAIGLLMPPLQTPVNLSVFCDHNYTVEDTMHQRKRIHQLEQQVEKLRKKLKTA
Described as above.
Excerpt: as §1

The target in assay [6] is T6, THAP1-N3 deletion mutant (amino acids 1-192) (human, UniProt Q9NVV9 1-192).
T6 construct: Gal4 fusion, in vitro translation product or GFP fusion according to assay
T6 sequence: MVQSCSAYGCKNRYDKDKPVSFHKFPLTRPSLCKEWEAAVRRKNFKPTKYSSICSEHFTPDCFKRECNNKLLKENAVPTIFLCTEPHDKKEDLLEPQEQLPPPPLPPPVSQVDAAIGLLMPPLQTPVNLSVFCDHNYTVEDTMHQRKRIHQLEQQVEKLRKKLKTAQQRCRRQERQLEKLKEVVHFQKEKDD
The description is as above.
Excerpt: as §1

Another assay addresses T7, human THAP3, full length (human, UniProt Q8WTV1 1-239).
T7 construct: Two-hybrid fusion or 35S-labelled in vitro translation product
T7 sequence: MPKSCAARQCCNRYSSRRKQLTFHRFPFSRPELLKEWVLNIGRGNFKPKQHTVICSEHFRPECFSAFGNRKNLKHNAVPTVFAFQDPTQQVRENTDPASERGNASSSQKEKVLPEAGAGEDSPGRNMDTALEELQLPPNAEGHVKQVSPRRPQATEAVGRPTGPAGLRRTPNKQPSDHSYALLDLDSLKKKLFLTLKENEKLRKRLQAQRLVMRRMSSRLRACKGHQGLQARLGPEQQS
The experiment in a line: yeast two-hybrid, Par4DD bait.

The target in the next assay is T8, human THAP2, full length (human, UniProt Q9H0W7 1-228).
T8 construct: Two-hybrid fusion or 35S-labelled in vitro translation product
The experiment in a line: yeast two-hybrid, Par4DD bait.

T8 sequence (Q9H0W7 whole entry, the tested form may be a part): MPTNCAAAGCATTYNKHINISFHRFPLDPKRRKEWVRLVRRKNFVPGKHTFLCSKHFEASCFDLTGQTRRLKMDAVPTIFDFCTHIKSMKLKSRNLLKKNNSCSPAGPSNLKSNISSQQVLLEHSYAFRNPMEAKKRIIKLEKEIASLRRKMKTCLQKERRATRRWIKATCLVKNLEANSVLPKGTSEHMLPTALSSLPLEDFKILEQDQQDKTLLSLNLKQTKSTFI

B1: Par4 leucine zipper/death domain (Par4DD, amino acids 250-342) (other)
chain: GFPRYNRDANVSGTLVSSSTLEKKIEDLEKEVVTERQENLRLVRLMQDKEEMIGKLKEEIDLLNRDLDDIEDENEQLKQENKTLLKVVGQLTR
notes: Gal4 fusion in two-hybrid; also called myc-Par4DD
Take B1: the binding result in assay [1] is on record as “binds”; in assay [2], “no binding”; in assay [3] it was “binds”; in assay [4] it was “binds”; in assay [5] it was “no binding”; in assay [6] it was “binds”. Moreover, the binding result with human THAP3, full length was “binds”; with human THAP2, full length, “binds”.
